Measured values: patent US20090163594A1, “Triple Assay System for Identifying Substrate Selectivity of Gamma Secretase Inhibitors” (ELAN PHARMACEUTICALS, INC., priority 2007, published 2009)

How the values were obtained:
[1] = molecular target: T1, gamma secretase, gamma cleavage (secreted Aβ) (Homo sapiens, UniProt P49768); test: Aβ ELISA and IP/Western blot of conditioned media, HEK cells transfected with C99GVP constructs; assay type: cell-based; design: secreted Aβ42: unit not given here; settings: for secreted Aβ (Ab40, Ab42, total): 5 μM, 24 h, C99GVP transfectants, FIG. 5D; for Aβ-lowering potency with C99GVP compared with native substrate APP: FIG. 5E; for effect on secreted Aβ / Aβ production: words; for drop of Aβ40: Aβ40 ELISA, FIG. 9C; for reduction in total Aβ: IP/Western blot, FIG. 9B
T1 construct: endogenous in cells; host or cells: HEK 293, transiently transfected with substrate plasmids
Description: AICD neo-epitope antibodies were raised against the peptide VMLKKKC (SEQ ID NO:39). […] (FIGS. 15 and 16). P Cell Culture and Transient Transfection: Human embryonic kidney 293 (HEK 293) cells (ATCC) were grown in Dulbecco's Modified Eagle Medium with High Glucose (DMEM, obtained from Gibco/Invitrogen, Cat #11960) supplemented with 10% fetal bovine serum (Hyclone, SV 30014.03) and 50 units/ml penicillin and streptomycin (37° C., 5% CO2). Cells were used at less than passage number 30. At the time of seeding, viability of cells was greater than 95% as determined using a Vi-Cell Analyzer (Beckman-Coulter). Confluence of cells on plates was kept at greater than 95% during all phases of the experiment as determined with a standard tissue culture inverted microscope. All transfections were carried out on 5×10^6 cells in 6-well tissue culture plates (Costar). […] FuGENE6 reagent (Roche Cat. #11-814443001) was used according to manufacturer's protocol for the transient transfection of adherent cells. Transfected cells were reseeded onto 12 well (2×10^6 cells) and/or 96-well (5×10^4 cells) plates (Costar) 16 h post-transfection; fresh media was added either with or without gamma secretase inhibitors. The cells and conditioned media were harvested 48 h post-transfection for analysis.
(§1) Inhibitor Treatment of Transfected HEK Cell: The transition state analogue gamma secretase inhibitor-L685,458 (Sigma) and the peptidomimetic inhibitor-DAPT (Dovey, H. F., et al., J Neurochem., 2001; 76:173-181) were dissolved in DMSO to make 20 mM stocks. Similarly, a number of Elan's series of sulfonamide inhibitors were prepared and used as described herein (see, also FIGS. 11-14). Inhibitors were added to cell cultures (e.g., HEK) at the indicated final concentration, and the treated cells were harvested 48 h post-transfection. The metallo-proteinase inhibitor TAPI-1 (Calbiochem) was used at a final concentration of 40 μM. The Aβ-degrading enzyme inhibitors, Bacitracin (Calbiochem) and phosphoramidon (Calbiochem) were used at final concentration of 1 mg/ml and 40 μM, respectively. All inhibitor experiments were performed in triplicate and repeated at least three times.
Immunoprecipitation (IP) and Western Blot Detection of Aβ: Total Aβ peptides in conditioned medium or cell lysate were immuno-precipitated at 4° C. overnight with 4 μg of the 2H3 antibody, followed by incubation with 50 μl of a 50% protein G-Sepharose (GE Healthcare) slurry for 1 hr and three washes in the same lysis buffer as described above in the Western Blot discussion. Proteins were eluted from the solid-phase immunoprecipitates in Laemmli sample buffer by heating at 70° C. for 5 min and resolved on 10-20% Tris-Tricine SDS-PAGE or the modified Tris-Tricine/8M urea gels (Qi-Takahara, Y., et al., J Neurosci. (2005; 25, 436-445). After transferring onto nitrocellulose membranes (Invitrogen), the membranes were heated to 98° C. for 5 min in PBS, immunostained with the 2H3 antibody and visualized with Super-signal West Pico chemiluminescent substrate (Pierce). Each experiment was repeated at least three times.
(§2) ELISAs used to quantify different Aβ species were performed using standard techniques as described above and in (Johnson-Wood, K., et al., Proc. Natl. Acad. Sci. U.S.A., 1997; 94: 1550-1555, incorporated by reference). The Aβ40 and Aβ42 peptides in the samples were captured onto 2G3 or 21F12 antibody coated plates, respectively, and detected with a biotinylated 2H3 antibody. The fluorescence signal generated from a streptavidin-alkaline phosphatase conjugate (Roche) was measured with a CytoFlour microplate reader (Applied Biosystems). Synthetic Aβ40 or Aβ42 peptides (Anaspec) were used to generate standard curves (FIG. 10). All measurements were done in triplicate.

[2] = molecular target: T2, gamma secretase, APP γ and ε cleavage (Homo sapiens, UniProt P49768); test: Aβ and AICD ELISA, Fas-APPsw-DD transfected 293 cells; assay type: cell-based
T2 construct: endogenous in cells; host or cells: 293 cells transfected with Fas-APPsw-DD
Description: as §2
An AICD sandwich ELISA was established based on capture of cell lysates with any of the AICD polyclonal or monoclonal antibodies discussed above, and reporting back with antibody directed at the extreme C-terminus of APP (e.g., 13G8, prepared in-house). Alternatively, luciferase-based reporter assays can be used to detect and quantify the presence of AICD and correlate those numbers to inhibitory potency of known or potential gamma secretase inhibitor compounds.
Polyclonal antibody AICD ELISA. HEK 293 cells were grown under standard conditions to ˜90% confluence. Cells were harvested, counted, and subsequently plated onto PDL-coated 60 mm dishes at 2×10^6 cells/dish in 5 mL media. […]

[3] = molecular target: T3, gamma secretase, AICD-GVP generated from C99-GVP (Homo sapiens, UniProt P49768); test: Luciferase reporter gene assay, HEK293 cells transfected with C99GVP; assay type: cell-based; settings: dose-dependent, FIG. 5C
T3 construct: endogenous in cells
Description: as §1, with “All inhibitor experiments were performed in triplicate and repeated at least three times.” left out
Luciferase Reporter Gene Assay: Luciferase reporter assays were carried out 48 hr post-transfection. […] After adding 100 μl of luminescent substrate (Promega), the luciferase activity was measured with a MicroLumatPlus microplate luminometer (Berthold Technologies). The P-galactosidase activity was measured similarly, using a luminescent β-galactosidase substrate (BD Biosciences). […]
Luciferase Assay. […] Some residual luciferase activity remained in the presence of excess gamma secretase inhibitors, even though identical treatment completely abolished AICD production as measured by Western blot (FIG. 5B).

[4] = system: AICD-GVP nuclear staining in COS-7 cells; test: Immunostaining of transfected COS-7 cells; assay type: cell-based; settings: DAPT 5 μM, FIG. 5F
Description: Immunostaining: Wild type or transiently transfected COS-7 cells (ATCC) were fixed at room temperature with 2% paraformaldehyde in PBS for 20 min and subsequently permeabilized with 0.2% Triton X-100 in PBS for 10 min. […] All staining was visualized on a Bio-Rad MRC 1024ES confocal microscope (Bio-Rad) and captured with a coupled CCD camera.

[5] = system: C99GVP-G25S
[6] = system: C99GVP-K28S
[7] = system: C99GVP-N27S
[8] = system: C99GVP-S26L
[9] = system: C99GVP-SLSS
[10] = system: C99GVP-SREBP1-gsnk
[11] = transient expression in HEK cells, ELISA

Molecule: C99GVP: 99 amino acid C-terminal fragment of APP with Gal4-VP16 domain inserted (SEQ ID NO:47)
- Aβ42 fraction of the total Aβ ([1]; transient expression in HEK cells): 15.7±2.5%
- secreted Aβ40 [1, 11]: 210.8 ± 19.2 pM
- secreted Aβ42 [1, 11]: 39.1±6.4

Molecule: C[C@H](NC(=O)Cc1cc(F)cc(F)c1)C(=O)N[C@H](C(=O)OC(C)(C)C)c1ccccc1 [DAPT]
- γ/ε selectivity = IC50 AICD/IC50 Aβ [2]: 0.7
- luciferase reporter transactivation by AICD-GVP [3]: block luciferase reporter transactivation
- secreted Aβ (Ab40, Ab42, total) [1]: block secreted Aβ
- Aβ-lowering potency with C99GVP compared with native substrate APP ([1]; ELISA): equal Ab potency
- nuclear staining of AICD-GVP [4]: abolished

Molecule: N27S: C99GVP point mutant in the GSNK motif (SEQ ID NO:45) (LEDAEFRHDSGYEVHHQKLVFFAEDVGSSKGAIIGLMVGGVVIATVIVITLVML)
- effect on secreted Aβ / Aβ production ([1]; versus C99GVP control): no obvious effect

Molecule: G25S: C99GVP point mutant in the GSNK motif (SEQ ID NO:43) (LEDAEFRHDSGYEVHHQKLVFFAEDVSSNKGAIIGLMVGGVVIATVIVITLVML)
- effect on secreted Aβ / Aβ production ([1]; versus C99GVP control): no obvious effect

Molecule: gamma secretase
- secreted Aβ [5]: showed no obvious effect on secreted Aβ
- decrease in total Aβ and in Aβ40 [6]: an even more substantial (˜90%) decrease in both measurements
- secreted Aβ [7]: showed no obvious effect on secreted Aβ
- drop of Aβ40 [8]: 52.7±2.3% drop of Aβ40
- reduction in total Aβ [8]: 65.7±8.5% reduction in total Aβ
- reduction in secreted Aβ [9]: marked reduction (˜97%) in secreted Aβ
- Aβ secretion (western blot and Aβ40 ELISA of conditioned media) [10]: also maintained normal Aβ secretion

Molecule: S26L: C99GVP point mutant in the GSNK motif (SEQ ID NO:44) (LEDAEFRHDSGYEVHHQKLVFFAEDVGLNKGAIIGLMVGGVVIATVIVITLVML)
- drop of Aβ40 ([1]; versus C99GVP control): 52.7±2.3%
- reduction in total Aβ ([1]; versus C99GVP control): 65.7±8.5%

Molecule: CC(C)C[C@H](NC(=O)[C@H](Cc1ccccc1)C[C@@H](O)[C@H](Cc1ccccc1)NC(=O)OC(C)(C)C)C(=O)N[C@@H](Cc1ccccc1)C(N)=O [L-685,458, reference compound]
- γ/ε selectivity = IC50 AICD/IC50 Aβ [2]: 1.9
- luciferase reporter transactivation by AICD-GVP [3]: block luciferase reporter transactivation
- secreted Aβ (Ab40, Ab42, total) [1]: block secreted Aβ
- Aβ-lowering potency with C99GVP compared with native substrate APP ([1]; ELISA): equal Ab potency

Molecule: K28S: C99GVP point mutant in the GSNK motif (SEQ ID NO:46) (LEDAEFRHDSGYEVHHQKLVFFAEDVGSNSGAIIGLMVGGVVIATVIVITLVML)
- drop of Aβ40 ([1]; versus C99GVP control): ~90%
- reduction in total Aβ ([1]; versus C99GVP control): ~90%

B1: C99GVP-SLSS: C99GVP in which the GSNK motif is substituted with SLSS from APLP2 (SEQ ID NO:51) (protein)
chain: DAEFRHDSGYEVHHQKLVFFAEDVSLSSGAIIGLMVGGVVIATVIVITLVMLKKKKLLSSIEQACDICRLKKLKCSKEKPKCAKCLKNNWECRYSPKTKRSPLTRAHLTEVESRLERLEQLFLLIFPREDLDMILKMDSLQDIKALLTGLFVQDNVNKDAVTDRLASVETDMPLTLRQHRISATSSSEESSNKGQRQLTVSGIPGDLAPPTDVSLGDELHLDGEDVAMAHADALDDFDLDMLGDGDSPGPGFTPHDSAPYGALDMADFEFEQMFTDALGIDEYGGQYTSIHHGVVEVDAAVTPEERHLSKMQQNGYENPTYKFFEQMQN
- reduction in secreted Aβ ([1]; versus C99GVP control, FIG. 9B and 9C): ~97%
